The record followed here is a protein production outcome set (Wang et al. 2014).

The data set is described as follows: label from the status in PepcDB records.
For “MSTPDATSPGSQQQDVFDFLGRGAGDAPVVRIDTHGAAVFLEGNRAMKIKRAVKFPFLDYSTLAKRKIACEQELEVGHRFAPTIYRRVVPITRTDKGALQIGGEGPAVEWAVEMMRFDDSATLDHLARAGSLGPGLIDAVADAIAASHQAAPLAATAPWGASIEPILADDTNELAAGGFAAADVAALDNGSRNALGRLRPLLEQRGVAGFVRWCHGDLHLANIVVIDGKPTLFDAIEFDPALASVDVLYDLAFPLMDLLHYGRGSDSAQLLNRYLAVTNADNLDALSALPLLLSMRAAIRAKVMLARPAADETIRRANRAIAESYFELALRLIAPPPPRLIAVGGLSGTGKSVLARALSGNVPPLPGAVVLRSDVARKRLHGVADTERLPATAYTTEVTEAVYRGLVERAAHILKQGHSVIVDAVFSKPEERDAIESVAAGLGISFHGLFLTADLATRVARVAGRTADASDATPEIVRQQQSYAQGVIGWTSIDAGGTPAETLSRAVAALPQTAQVCSTLEHHHHHH”, the protein production result is recorded as “not failed”. On to “MSTPDNRSVNFFSLFRRGQHYAKTWPMEKRLAPVFVENRVIRMTRYAIRFMPPVAVFTLCWQIALGGQLGPAVATALFALSLPMQGLWWLGKRSVTPLPPSILNWFYEVRGKLQEAGQALAPVEGKPDYQALADTLKRAFKQLDKTFLDDL”, for which the protein production entry is on record as “not failed”. Take “MSTPRPSLTLTLLQAREAAMSFFRPSLNQHGLTEQQWRVIRILRQQGEMESYQLANQACILRPSMTGVLARLERDGIVRRWKAPKDQRRVYVNLTEKGQQCFVSMSGDMEKNYQRIQERFGEEKLAQLLELLNELKKIKP”: the protein production entry is “not failed”. As to “MSTRRSAFLRGLWAATPFSLVIAPFGLLFGVVGTEAGLDIVEVMGFSIIVIAGAAQFAAVQMMADHAPTLIILATSLAVNLRMAMYSASLTPHLGPAPAGLRALIAYCLVDQTYTASMIEFDRAPQQSLGEKIAFFFGTVLPVCPLWYGSTYVGARLGTKIPPEFALDFAVPITFLAMIAPLLRTPAHIAAAGVSVALSLVLAFMPYNSGLLVAAVAAMVTGAQVEAWTERRRAA”, the protein production entry is on record as “failed”. As to “MSTSMPTALAGGRYQLGQLIGRGGMAEVHVALDTRLGRTVAVKIMRADLANDDIFLARFRREAHAVAQMNNPNIVNIYDSGEELVSSESGDTERLPYIVMEYVKGQTLRDIIKVNGALSQRDCEQVLLGVLNALDYSHRMGIIHRDIKPGNIMISEQGVVKVMDFGIARALDDSAATMTQSQGVVGTAQYLSPEQARGETVDMRSDLYSAGCVLYEMLTGRPPFTGDSAVAIAYQHVSEVATPPSAVVPGLPKMWDSICAKAMAKDRQNRYATASEFKTDILTYMNGGVPVAAAFNPLTDLSNMKARKEAERDLPTTPVEPQQQPTQAFNPVTGQFEQIPPANGANSAALQSRAQQRAAAAKAKKRKKIIIGSVIAVLAVALVGAGVVFAMSGAPNKSAEDKVTIPEVCNASTSKDNIKLKLETLGLTMVGKQDTDSTEPEGTCTKMSPEAGAKVAKGSKVKVWFSAGPQSTQVPDVKERSQEEARSILESAGFKVNATVRTEDSADIAKDMVTKTDPAAGQSVPKGTTITIYVSSGMTTVPSNLVGQSKDSVLQQYEGRFSFTVEQESSDTVEAGLITRVSPDSGSSIAQGGSITIWVSTGKEKVAVPNIAAGTKYATAELMLKAVGLKAQANGPADPTAVVVGIDPGAGAQVDVGSTVTITTKAAVTGDNNGNGNGNAGGSSSTGGTGPGGDK”, the protein production result is on record as “failed”. Regarding “MSTSQGSPNWPRAERVARLEVLETQILARPAEVYAEVLALWPGLSAAVPSPASPAPDSCPGPSELAAQATALQLLSRCAVLLGEDGAAANHAETGRRLAHDLGLRSLEARCLEVLGVVRGRQGDVKQAAWLLRRSLYLLHALGDTPGQGRLLGRVGDLLERLEEYPQALLFYRAGLAQLPAARPVTAAVQVGLARTLHQLGEYAESQELAAQALAVCQEVGLPQLEAQVQLQQALTQLALGELDASRRHAEQAQALAAPRHAEQAQALAAPLEHTVPGAAAWVLGEAALVRGDLAQAREGLGRAEELANTPPLLARVRGSQSRLYEQLGDPAQALRCLREQRELEQQHRARLAEQRAGLLAEQIRYEVLRREAELQRKRRNERAQAASALRETRVELSRQASHDQLTGLANRSFFYTRARQALDLLAPGRSLGLIVADIDHLKAINDRFGYAVGDLLITELARRLCEAVRPGDLVGRLSGDEFVMLLSDLASPGDLRLVAERLLQQLREPCVCGTELVVPTVSLGYVVAPQDGGDVELLQKRADLALFQAKAQGRNMAVAFAGDMSAEEEERRMLSQDLRHAVRHGQLQLHYQGIFLLPGQRLSGFEALVRWPHPKRGMIPPDRFIALAEESRLILELGRWVLDEACRQARAWQLPERGLTMAVNVSALQFEQSDFVAGVRACLEQHGLPGHSLVLELTESMVHRDPRLAKQTLRELQALGVKVAMDDFGTGYSSLSMLKSLPFGLLKIDREFLQDLSAASEQFAASQQFIEVMVRLAHNLQMRVVAEGVETAEQYDLLCGMGCDEAQGYWLARPLPPAEAAALLPAGAPDSPWPTQSPSSQQARQESPRQSLSED”, the protein production result is reported as “failed”.

In the case of “MSTSSTQHAAPAFTGFSSSAQAMSLVAFTTVATITLLLCVMTGPDRDDLEEFYTGYGSLSPMRNGLAIAGDYISAATVLGTGGVIALTGYDGVVLALSTALSLMLLMFLLAEPLRNAGQFTMGDALARRMPGRAVRVTACVVTIAALLPLMLVQLAGTGDLLSFILGFSNDTLKTGCIIGLGALMISYAAIGGMKGTALIQIMKIVMLLGSGAVVAVLILHRFDWDPGALFSAAAAHSGAGPAFLRSGLEFAGGPNPRLDMITTELTVVLGGGCLPHVTMRMYTANSARQVRRSMSWAVPAVALFVLVITVVGFGATALVGREAIAAADPQGNTAYLLGSRAAFGPDVSSAETLLFTTVTTALFLTLLASVAGMILACANSLAHDVFAARVQEMSPRREMTLARLSALAVGVPTILLATLVHHRSLQPLVTLSFCIGASAIAPALVYGLFWRRYTRTGLLCTLIGGTLSVVLLLPGTNLVTGSPAAAFPDADFNWFPFTTTGLATIPLGFLLGWLGTLLSGRQKAEAQRRQYEAVEGWILAGAVRRSG”, the protein production result is listed as “failed”.

As to “MSTSTSCPIPGGRDQLPDCYSTTPGGTLYATTPGGTRIIYDRKFLLECKNSPIARTPPCCLPQIPGVTTPPTAPLSKLEELKEQETEEEIPDDAQFEMDI”, the protein production result is given as “failed”. For “MSTSYQHSGPEFTEAQMQAMVDGLFAGASIGAVCNMQQEQLEAGYALAYNLYTAGNYRDAETMFRALCVYDHNDERYWLGLAGCRQAQGDLAGAIDAYGLAGAASALGDPAPFVHAGICYMKLGDTENARNTFAGVPFIGDPDNDTHAAMHRKAEAMLELLAGERP”, the protein production entry is reported as “failed”. Take “MSTTDDSYIVVNNEAAGKVSLKEKWWHVLDTYKVGIIPVPLFVLAGVLIGIDCLSGKLPSDIVVMVATLAFFGFACGEFGKRLPIIGKMGAAAICATFIPSAMVHYGLLPDVVVESTTKFYKSTNILYLYICCIIVGSIMSMNRQTLIQGFMRIFFPMLCGEIAGMLVGMGVGIALGLDPFQIFFFLILPIMAGGVGEGAIPLSIGYATILHMDQGVALGRVLPIVMLGSLTAIILAGVLNQLGKRYPHLTGEGELMPNKGNNLGGSESSAPASAFSGKADVTTIASGALLAILLYMVGMLGHKMIGLPAPVGMLFAAVVVKLAHGVSPKMLEGSQVVYKFFQTSVTYPILFAVGVAITPWQELVNAFTIQNLLVIISTVVTLVGTGFLVGRKIGMHPIDVAIISCCQSGQGGTGDVAILTAGNRMMLMPFAQIATRIGGAINVSISLLVLANFLV”: the protein production entry is reported as “failed”. The result for “MSVALPRSPDVDGSLSEAPNRIDVVTFGCRLNTYESEVMRREAESAGLGALQGGAVIFNTCAVTGEAVRQARQAIRKARRDNPGARIIVTGCAAQTEPEKFAAMDEVDLVLGNEEKLKANSYRALPDFGVNDTEKARVNDIFSVRETAGHMVDAIEGRARAFVQVQNGCDHRCTFCIIPYGRGNSRSVPMGAVVEQVKRLAGNGYAEIVLTGVDMTSFGADLPGAPKLGRLVKTILKQVPDVKRLRLSSIDSIEADDDLLDAIATEPRLMPHLHLSLQSGDDMILKRMKRRHLRDQSIRFCEDVRKLRPEIVFGADIIAGFPTETDAMFENSIKIVEECGLTHLHVFPFSPREGTPAARMPQVRREVVKQRAARLRAAGEAAYRRHLSSLPGTRQSILIERDGLGRTEGFTLAALGTGAPGEIVEATITGHDGARLNAVPLAARAA” reads “failed”. Consider “MSVETQRESLLNAPALLFMSAVVLIAFWILFPRQPAFRDPANLSAKDALSVAYLRVLVQSDPGNAPLRLSFVQVLTEAGMTDEAVLAMEPLQNAPESGLTYEIRLAELKLALQQLYRHPPRDVEASLRRRIGELVPLLLRLADNDKESNQVVLLAEQFGEPSVVAETFEQLAGMQNETRQTKSRWLAFAAKQRLAAAQPRAAAQNFCRAFTFERIARKKTELAKACLGAYLQAGVDREALKAAMQILSAYSSSNADAQLLLLAADVAQPMGDRDHALVWLEQASAHLPADQRLAERVVRLQVSMGLLSEGLARAPMLRASLIPGSERQRLLAHLYDWNGQPDEALALWLSFARHKADEEAETRAFALAQAKPDNEAIVQLLEAVMSRRKLTTTEADAYVKAGLAVAQPSRVEKQLRRHAERFGNPPPILNALVEVLVLQGKPDAALTLYEDMPEIQDGRQRLALARLYEEAGNTQKSFQLLLRDIDSPPPASAEEYWLLLAKVSTQLGQDAYAGQAYEKALALRSNDVEILENLQRLALRHHDEKKSERLARYGWERLKRIEDLQRLMRFSWKRRNWDELDQWLEVAEKLPSAAQARDYWYFQSMRRMAHGEQSAARGALQEILKLQAADPEVTEAMIWLLLAYEKIDRVLLDSVVAPYRAQTASQSTVNPALAEALAAAEQGLGRPVQAAAWFLRSLSTRAGDFLWILALADNMEWAGCPAHANYARFQALEMFASRQNSRIEVKYPSRLAEYFFGSKYLPPKREGTEDAKKQEELQSIRDQWGFGGKLDNADYFALRREVERLELSQWKDFAKAVRNRNEREVERQLALISDHLKRQPAAASHPDMLPLSIDDVDRANRWLAGEPEPNPSDLATELDICRETLTKIREFPVNSEPAKR”, for which the protein production entry was “failed”. “MSVFTPLARPELETFLAPYGLGRLLDYQGIAAGSENTNYFISLEQGEFVLTLVERGPVQEMPFFIELLDVLHDANLPVPYALRTTDGQALRELAGKPALLQPRLPGKHISEPNTQHCVQIGELLANLHLATREQVLERKTDRGLDWMLSEGRNFLSHLGETQRALLEKSLQEIEDLKPQIMALPRANLHADLFRDNVLFEGTHLTGLIDFYNACSGPMLYDLAIALNDWCSRENGQLDAVRARALLGAYAGLRPFTAAESKLWATMLRIACVRFWLSRLIAAETFAGQDVLIHDPVEFEQRLAERQTPHIALPFAL”: the protein production result is “not failed”. Consider “MSVIKIEKALKLDKVIFVDVRTEGEYEEDHILNAINMPLFKNNEHNEVGTIYKMQGKHEAIQKGFDYVSYKLKDIYLQAAELALNYDNIVIYCARGGMRSGSIVNLLSSLGVNVYQLEGGYKAYRNFVLEYLRHVMDTK”, for which the protein production result is “not failed”. “MSVKKERVDVLLVERGLIETREKAKRAIMAGLVYANEMRLDKPGEKISQDTEITVKGQVMPYVSRGGYKLEKALETFHLDLQDKVMIDIGSSTGGFTDCALQNGAKLSYALDVGYNQLAWKLRQDERVVVMERTNFRYVTPADLERGLPQFASIDVSFISLKLILPVLKTMLMPNGDVAALIKPQFEAGREQVGKKGIVRDRKVHEAVVEMIVEFALKEGYDVEGLTFSPITGGDGNIEFLIHLKWHGERENGENHSPISIEQVVTEAHEVLKQKGKGE”: the protein production entry is “failed”.

Turning to “MSVLDISIIIANYNTEEFLRNCLNSIKSTVKNVKYEVIVTDNNSKDDSVTMIKNEFPWVKLIESKINGGFAYANNLAIKESSGKYIFLLNTDTVLLKDVIEKMVNYMDENKDVGLLGPKLLNRDMSHQTSVSGFPSFKREFYHIYKLKNILKIPILKKIIVAMSGKIGSKDVEQYMMNFKSIDEPREVQVLVGAALLVRRNVIDKIGMLDERYFMYYEEIDFCYQANKAGFKAVYYPNGEIIHYIGQAATKSRILEHHHHHH”, the protein production entry is reported as “not failed”.
